We go through 20 sequences from the DeepSol protein solubility set.

This series can be described thus: soluble on expression in E. coli; label from the status in PepcDB or PDB records.
With “MGSDKIHHHHHHVSDLEWVLAIPHEQAFKRMEEPWGGAKTSYLTGIKETLEANYGPIHFTRLYFGEEFCERALSTGKALEEAVAAAEERGWGFTYVTPYLTETGLTKVRLLLDILAQTKPEAEVVINDWGVLDWVTEHHPTFTPVLGRLMNKIIRDPRMPDSLRNSPDQTVMHKFRTCNLAGGEMKDLLDQYQVKRIELDYPPQGLDPNLPAWGYDISLSIPYGVIMTGRICLMQSWGLAAGEKFRTTGPCPRRCRLGWLELSDPSGRVKKDQDWQIMQKGNTVFYRQSKEFLAEILTEAEKTGVSRMIFQPEPI”, the “soluble on expression in E. coli” value is “not soluble”.

“MIALHFGAGNIGRGFIGALLHHSGYDVVFADVNETMVSLLNEKKEYTVELAEEGRSSEIIGPVSAINSGSQTEELYRLMNEAALITTAVGPNVLKLIAPSIAEGLRRRNTANTLNIIACENMIGGSSFLKKEIYSHLTEAEQKSVSETLGFPNSAVDRIVPIQHHEDPLKVSVEPFFEWVIDESGFKGKTPVINGALFVDDLTPYIERKLFTVNTGHAVTAYVGYQRGLKTVKEAIDHPEIRRVVHSALLETGDYLVKSYGFKQTEHEQYIKNQRSLLKSFHFGRCDPRSEVTSQKTGRKCRLVGPAKKIKEPNALAEGIAAALRFDFTGDPEAVELQALIEEKDTAAYFK”: the “soluble on expression in E. coli” value is “not soluble”.

Turning to “MRGSHHHHHHGMASNEFPVVLVINCGSSSIKFSVLDVATCDVLMAGIADGMNTENAFLSINGDKPINLAHSNYEDALKAIAFELEKRDLTDSVALIGHRIAHGGELFTQSVIITDEIIDNIRRVSPLAPLHNYANLSGIDAARHLFPAVRQVAVFDTSFHQTLAPEAYLYGLPWEYFSSLGVRRYGFHGTSHRYVSRRAYELLDLDEKDSGLIVAHLGNGASICAVRNGQSVDTSMGMTPLEGLMMGTRSGDVDFGAMAWIAKETGQTLSDLERVVNKESGLLGISGLSSDLRVLEKAWHEGHERARLAIKTFVHRIARHIAGHAASLHRLDGIIFTGGIGENSVLIRQLVIEHLGVLGLTLDVEMNKQPNSHGERIISANPSQVICAVIPTNEEKMIALDAIHLGNVKAPVEFA”, the “soluble on expression in E. coli” value was “soluble”.

With “MSAALVAQQVATLREQGFVVVRNFASPPVRQALRELALQHLAQTVDPVEYEADLKYPGAPSSRLAAGGQTVRRLLDAYGRDQRFRDWATQAAIGAFLRAYFQDTPVLSTVHHNCIMTKHPAFGSLTGWHQDIRYWSFSDDDLVSCWLALGDERADNGGLYFVPGSHTASFMPEQYDARKFFRDDLPQNQEWIGRAVCPELQAGDVVFFHCRTLHAARQNATDTVKLSLVHTYHPASCHPLPGTRSAGSPGVPLPLEHHHHHH”, the “soluble on expression in E. coli” value is listed as “soluble”.

Turning to “MPGPILKKCFNCRVALPEDAINTAQCQKCQKNEAKYGKPGTCQYCKLNAAFHDQKCVWCSHAERKFGNPFPCANCKLSCAFPRRESDKVEGAALLCRLCILQARHTNQTVVAGIPVPPEKPERSGEGSSTEQRDRDHRQHRPTSHHHRDHKDHHRRDDKHHHRDSNHRHAHKRRHQEEPNNNSNNGTSSSGGAPPLVPNNENGNGFPPFGDRDPGESMVKQQKMEDEIRRLKTLLAEKDQLIFDKDKQISNLKADQYNLDKKHRERVQQLIKEKEDSIRAIEQMRNSKSSKRN”, the “soluble on expression in E. coli” value is “not soluble”.

As for “MTLKELYAETRSHMQKSLEVLEHNLAGLRTGRANPALLLHLKVEYYGAHVPLNQIATVTAPDPRTLVVQSWDQNALKAIEKAIRDSDLGLNPSNKGDALYINIPPLTEERRKDLVRAVRQYAEEGRVAIRNIRREALDKLKKLAKELHLSEDETKRAEAEIQKITDEFIAKADQLAEKKEQEILG”, the “soluble on expression in E. coli” value is recorded as “soluble”.

For the sequence “MAITQKRPVYLQLVDRIKNEVATDVLSANDQLPSVRETALQEKINPNTVAKAYKELEAQKVIRTIPGKGTFITGNTASVKNSNQNRLLADLSQVIAELIKSGVKGERIKKIVNDILGGKNAEN”, the “soluble on expression in E. coli” value is given as “soluble”.

Take “GVADASDPIRPLVEALNAEAPLKLWSVLVTCLGDVSRDGVIEVSGVALSSFVERMGLQPQAMRVALHRLKRDGWVESRRLGRVGFHRLSDSALTQTRAVAGRIYGPGAGPAPWHLAGMPPDAPDGLSLLPDTLSATPISRRFALICGPLEDVPEDWLLTAPSGRGLPVWVQDVVVEAGCEAEFKALERTLAQIDKVPDTRLERFTLRVLVLHAWRRLILRSSPAAEAALGGARAEISCRARVHQLLDQLGSVEPDWDLPATEDAAS”: the “soluble on expression in E. coli” value was “soluble”.

For “MAHSAAAVPLGALEQGCPIRVEHDRRRRQFTVRLNGCHDRAVLLYEYVGKRIVDLQHTEVPDAYSGRGIAKHLAKAALDFVVEEDLKAHLTCWYIQKYVKENPLPQYLERLQP”, the “soluble on expression in E. coli” value is on record as “not soluble”.

As to “MPMFAWKGKRDKSMKVSVVIPVHNEASTLSKVLAEVKKLEPYEIIIVDNGSTDGTKEIALQHHCRVIYYNHSLGNDVGRAIGAREAKGEIVLFLDGDIVMKSEELYPFIKGIQQGHQIVLNNLTWSVYLKVRPHYTTVGKYMLNRYLNKKEFVVGSLIAIPHAISREVIEKLGWWNLADPALFQAMAMSRGVDISDMASVDVIYTNKVRPVHTGTSPDSPYPKATSRIMGDHLRALQYITETYGKRGGFSEGNRDREFIGKYKPVVLKKEKAKYSAIIPVSEEKTTIRSVIQEVKKAGVDEIIIVANGADIETIKQVNLENVIVVEVTKTLGNNVARAIGAMHATAEICLFVDGDYAIPAKKLVPFLRAIEDGSDMALNDLQCLLDIFHPADPISMGKYFVNLVAKRPDLWNNSLTAVPHAIRKKVIEKIGYDSLIIPPLAQMKAILEGFSITTVEFVDVIKTNRVRPEQHEFVNGRISAFDRIFGDQLEAIAYLLQHTDERGGFTDGDRDREIIQQLRREEENTNEY”, the “soluble on expression in E. coli” value was “not soluble”.

For “MAHHHHHHMNAMYSADQIHVPPELGTIMKQYTKAVMRDKPTDLYKYSANFFAILSGYAAPFDSEGQLMENGVQEASSRSTVPISFGSEKEENAGSQDPTDILLRRYDRTGTGYMDPAELPQLLAELRMNLSLDEKDVVSAEDILAALPSACDQIDLLELRNLLLESMGD”, the “soluble on expression in E. coli” value was “soluble”.

On to “MADYTTIAAQPRNEFGKGFARRLRVAGQVPGVIYGVDVEAPIHFSINRLELHAVLRAHGVNAIIELDIEGEKHLTMIKHVDQNVLTLNADHVDLLAIKRGEKVEVEVPVVLTGETAPGTTLVQDADVVLVEADVLSIPEEITFSVEGLDVDSKVLAGDLAMPANTSLVADAETVIASVNHEEVAEEAEETEGEDAEEAPAAEGEE”, for which the “soluble on expression in E. coli” value is “soluble”.

Take “MSLKNVLTGLFLLILATACSEEEPQTITPVPFNQVTLTDGFWKNRMQTEINVTVPFSVEQSAPAVERFRRCAAFLAGDSTALPETHRFISSDLYKVMEGVSYSLMIQPNKELEEFMDRVADLITASQKDDGYLYISHICGNPDPREMGEKPYSWVVHSHELYNVGHLYEAAVAYYQATGKDKLLNVAIKSAKHVNKVFFEGGDPNYNGGKPINQAPGHEEIELALCKLYRVTNDPLYLDMAKKFLEIRGVTYRPEGEGVMAPTYAQQHAPVKEQTEAVGHAVRAAYLYTAMAQVDALTGLNDYTKALNSIWTNLVTTRMHITGGLGAVEGMEGFGAPYELPNLTAYNETCAAVANVFFNYGMYLDSGDAKFLDIAELSLFNNSLAGINLHGDRFFYVNPLEADGVRRFNHGNGGRAKWFGCACCPPNISRLILQVPGYMYAYSKDRVYLTLYGGSQTTIPLEGTRVKLEQTSAYPFDGKVRLTVQPEKGSKFSVCMRIPTWARSDEFVPGGLYPYKQPKQAEVELSVNGQKTDFKMEKGFAVIKRDWKPGDVVELNIPMPVRFVDCIPEVSENIGKTAVTRGPLVYCAEEVDNAGPVQRLYLGDTNEAQAKVANISSGVLQGLERITLPGMEKKVGGITSREITMIPYYAWCNRGDNRTMLVWLNEEASTASIGQQTMAYLRNVKGVNASSVAGGKNISVRALCDGKVSESSADKLTEQWVSEGSGKQWVQVDFREPFLLNSLSVYWLDDQDKITVPSGWSVEYKSDAGWTPLELYVTDSYQMGTDRFNVVHPSGSLEVESVRILIEPQKGKSIGVSEIRFEEGHHHHHH”: the “soluble on expression in E. coli” value is reported as “soluble”.

“MNHHLLSQAHLDKEKLVILVKEDEKMNSMHKDKPFFPLLIDYMSSGPVVAMLWEGCDVVKRARVILGEELEVGEFRSIFYDLVVRDTHKGCHCSDSVASANREYVLWFEEFKEGTRFD”: the “soluble on expression in E. coli” value is reported as “not soluble”.

Consider MSLSVIDLLKQRVQSAGKKPVIIFPEG, for which the “soluble on expression in E. coli” value is “not soluble”.

For “MDQLFYNGPPDYVEIEDRAITTEPGASIQAAPGAIWMEALPAIEGIPAGLEYLAYLDTVMVHQVKEVLEILTGWESKNKYAIRNKNGQQCYYAFEESNAWERQCCGSQRGFTMHIVDNFNKNVLIVKRELRCCADSFCGCLLGLQNICTIESLSTGLLGTVLQGYGCTNSFYNILDKDGNLIFLVDGQGCCTSCCCEDKDFTIKTPDSSVPIGSITKKWGGLLREAFTDADTFAVTFPIDLDVKLKAILLGATFLIDFVEFENNN”, the “soluble on expression in E. coli” value is recorded as “not soluble”.

With “LNDAWFNSSVVRAMLTHTRVFGRYEGPEEKLFRTANYTEINCIDNYAPTEMIEVKVTDRSGAVVEGADIRFCIYNYSEFYPVVTKQSDAQGLASLRVGKGDMLIWAAKDGLFGYALSKADDRKPLAIALDNFEAQPEWADFKIVPPAGDPIPTTCSPQQISTNDARLLREDSIRAAYEATFATAEQSAALAAELGVDAPALTGILQTSRGNHADIEGFLRSVEAGKARQRAMDLLQTVSPKDLTDTPESLLKVIFRDMAEPAPEAASGEAYRHHLRYVASPRIYTEMLSSFVPTLRSILTAKEQEAMRQDPAELVRWVSSNIRLDTLYNTQYTTITPVGVWRAKRADLRSMGIFFVAMARTLGIPARYDEVTGKIQYSKELMPLRWSDVNLRESKTALKEQGSLALDYSPTALAPNPNYYSRFTVAELQPSGIIRTLYYDENEPTDLKTLFDRPKEMNAGHYFLVTGTRMASGSVLCRMRKFTVEAGKTARQPLELLHDSTDIQVIGSINAEQLYHDLSHAEDRSLLSTTGRGYFAMAILGAGQEPTNHALKDLEKVKADFEQWGRKLILLFPDADGHKRYKPADFPSLPETAVFGLDIQGRNAAMIREAANLPDATNLPIVIIADSFGRVVFVRQGYTIGLGEQMMQVIHRL”, the “soluble on expression in E. coli” value is recorded as “not soluble”.

Take “MPRPSTCADSGGGMMTTLTARPEAITFDPQQSALIVVDMQNAYATPGGYLDLAGFDVSTTRPVIANIQTAVTAARAAGMLIIWFQNGWDEQYVEAGGPGSPNFHKSNALKTMRKQPQLQGKLLAKGSWDYQLVDELVPQPGDIVLPKPRYSGFFNTPLDSILRSRGIRHLVFTGIATNVCVESTLRDGFFLEYFGVVLEDATHQAGPKFAQKAALFNIETFFGWVSDVETFCDALSPTSFAHIA”: the “soluble on expression in E. coli” value is recorded as “not soluble”.

On to “MLKAMEHPAYSQLRPVTPSAGVVLCPNPGYSSLEGTNSWVVRAEGDRCSIVIDPGPADEGHLNVLHGKAETVGLVLLTHRHHDHADGAERFRQLTGAAIRAQQAPYCHGGDVLRDGEIIAIDGVTPQLEVVFTPGHTSDSVCFFVWSGVPHESNLEGIITGDTIAGRHTTMISETDGDLGQYLNTLALLEKRGKGIALLPGHGPDGDDVASFAHWYIERRMQRLEQIKEAIAQRGADVPIKELIDAVYDDVDPVLRGAAEQSTRVALRYLAQQQ”, for which the “soluble on expression in E. coli” value is given as “not soluble”.

With “MVNEYKKILLLKGFELMDDYHFTSIKSLLAYDLGLTTKMQEEYNRIKITDLMEKKFQGVACLDKLIELAKDMPSLKNLVNNLRKEKSKVAKKIKTQEKAPVKKINQEEVGLAAPAPTARNKLTSEARGRIPVAQKRKTPNKEKTEAKRNKVSQEQSKPPGPSGASTSAAVDHPPLPQTSSSTPSNTSFTPNQETQAQRQVDARRNVPQNDPVTVVVLKATAPFKYESPENGKSTMFHATVASKTQYFHVKVFDINLKEKFVRKKVITISDYSECKGVMEIKEASSVSDFNQNFEVPNRIIEIANKTPKISQLYKQASGTMVYGLFMLQKKSVHKKNTIYEIQDNTGSMDVVGSGKWHNIKCEKGDKLRLFCLQLRTVDRKLKLVCGSHSFIKVIKAKKNKEGPMNVN”, the “soluble on expression in E. coli” value is reported as “soluble”.
